Experimental data as given in WO2009104736A1 (dated 2009).
Each block holds one molecule with its values, some of them ahead of it.

Tests used:
[1] = target: amyloid β 1-42 protein (Aβ 1-42) (UniProt P05067); experiment: SPR competition, Biacore J; Aβ 1-42 on a CM5 chip saturated with 3.4A10 (competitor), then 3.4A10 and 4G8 mixed 20:1; parameters: unit not given here
Aβ 34-42 = target: T1, Aβ 34-42 (UniProt P05067 705-713); experiment: dot blot of peptides on nitrocellulose
T1 construct: domain: Aβ 34-42; Positions count on Aβ
T1 peptide (looked up): LMVGGVVIA

Aβ 25-35 = target: T2, Aβ 25-35 (UniProt P05067 696-706); experiment: dot blot of peptides on nitrocellulose
T2 construct: domain: Aβ 25-35; Positions count on Aβ; also called product code 4309-v
T2 peptide (looked up): GSNKGAIIGLM

amyloid β 1-42 protein (Aβ 1-42), sequence (P05067 672-713 limits assumed): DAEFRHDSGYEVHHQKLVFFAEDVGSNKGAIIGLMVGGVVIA

- enhanced reaction (response level) [1]: > 2000
Molecule: mouse anti-human Aβ monoclonal antibody 4G8

- binding result (Aβ 34-42): no binding (tested: 1 μg/ml antibody)
- binding result (Aβ 25-35): no binding (tested: 1 μg/ml antibody)
B1: monoclonal antibody 3.4A10 (antibody of Example 1) (antibody, V domains shown)
VH: EVQLLESGGGLVQPGGSRKLSCAASGFTFSSFGVHWFRQAPEKGLEWVAYISSGSSTIYYADTVKGRFTISRDNPKNTLFLQMASLRSEDTAMYYCAPYGSSPFPYWGQGTLVTVST
VL: ELQLTQSPASLAVSLGQRATISCRASESVDSYGYNFMHWYQQKPGQPPKLLIYLASNLESGVPARFSGSGSRTDFTLTIDPVEADDAATYYCQQNNEDPLTFGAGTKLELKR
notes: Mouse IgG2b from a hybridoma, purified from ascites; also called TAPIR antibody
